From US6660467 (INSTITUTO DI RICERCHE DI BIOLOGIA MOLECOLARE P ANGELETTI S …, dated 2003)

Tests used:
[1] = biological target: T1, membrane-bound CNTFR (m-CNTFR), full-length human CNTFR (amino acids 1-372) (human, UniProt P26992 23-342); assay: CNTF surface binding on HepG2 cells stably transfected with full-length human CNTFR
T1 construct: whole, on cells; also called full-length CNTFR; CNTFR on HepG2/CNTFR cells
T1 sequence (looked up): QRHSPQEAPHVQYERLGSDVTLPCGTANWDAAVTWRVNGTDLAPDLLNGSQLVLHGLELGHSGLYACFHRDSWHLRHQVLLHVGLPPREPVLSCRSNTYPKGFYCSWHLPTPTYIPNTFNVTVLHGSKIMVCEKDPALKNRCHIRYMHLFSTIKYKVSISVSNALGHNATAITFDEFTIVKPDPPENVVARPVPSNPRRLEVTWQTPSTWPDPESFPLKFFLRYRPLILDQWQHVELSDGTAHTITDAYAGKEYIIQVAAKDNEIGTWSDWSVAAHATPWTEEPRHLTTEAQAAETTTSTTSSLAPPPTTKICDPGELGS

[2] = biological target: T2, solid phase-immobilized CNTFR (UniProt P26992 23-342, limits assumed); assay: competition with biotinylated CNTF for binding to solid phase-immobilized CNTFR
T2 construct: also called CNTF alpha-receptor
T2 sequence (looked up): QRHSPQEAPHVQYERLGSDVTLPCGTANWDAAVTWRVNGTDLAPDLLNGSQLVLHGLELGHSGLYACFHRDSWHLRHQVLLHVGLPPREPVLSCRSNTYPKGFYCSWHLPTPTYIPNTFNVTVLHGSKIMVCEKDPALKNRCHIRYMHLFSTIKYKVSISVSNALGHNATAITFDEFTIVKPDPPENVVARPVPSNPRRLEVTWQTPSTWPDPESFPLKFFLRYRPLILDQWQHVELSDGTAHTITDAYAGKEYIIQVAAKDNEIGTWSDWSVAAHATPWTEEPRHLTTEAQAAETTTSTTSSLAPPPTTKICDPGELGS
Procedure: The CNTFR binding activity of CNTF and IA-CNTF was determined by measuring the ability of the proteins to compete with biotinylated CNTF for binding to solid phase-immobilized CNTFR, using a previously described procedure (Saggio et al., 1994; Saggio et al., 1995).

soluble CNTFR (s-CNTFR) = biological target: T3, soluble CNTFR (s-CNTFR) (UniProt P26992 23-346, limits assumed); assay: cell-based or functional assay
T3 sequence (looked up): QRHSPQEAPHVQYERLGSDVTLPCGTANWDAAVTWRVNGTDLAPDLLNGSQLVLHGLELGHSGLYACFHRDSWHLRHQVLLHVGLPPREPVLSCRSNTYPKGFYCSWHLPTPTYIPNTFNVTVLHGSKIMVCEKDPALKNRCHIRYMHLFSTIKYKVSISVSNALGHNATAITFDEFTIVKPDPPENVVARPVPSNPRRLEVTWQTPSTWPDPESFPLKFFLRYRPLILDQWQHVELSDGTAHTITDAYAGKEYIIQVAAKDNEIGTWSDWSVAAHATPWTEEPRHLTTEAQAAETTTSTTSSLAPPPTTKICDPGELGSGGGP

| Binder | binding result [1] | fold reduction of affinity against wild-type CNTF [2] [fold] | stimulation of haptoglobin production in HepG2 cells at a subsaturating concentration of s-CNTFR; EC50 relative to CNTF (soluble CNTFR (s-CNTFR)) |
| --- | --- | --- | --- |
| human ciliary neurotrophic factor, wild type (hCNTF; SEQ ID NO: 1) (ligand, also called human CNTF; wild-type CNTF) MAFTEHSPLTPHRRDLCSRSIWLARKIRSDLTALTESYVKHQGLNKNINLDSADGMPVASTDQWSELTEAERLQENLQAYRTFHVLLARLLEDQQVHFTPTEGDFHQAIHTLLLQVAAFAYQIEELMILLEYKIPRNEADGMPINVGDGGLFEKKLWGLKVLQELSQWTVRSIHDLRFISSHQTGIPARGSHYIANNKKM | binds | – | – |
| Thr169Ile/His174Ala/human CNTF (IA-CNTF; SEQ ID NO:2) (ligand, Produced in E. coli, purified by reverse-phase HPLC; also called Thr169Ile/His174Ala/hCNTF) MAFTEHSPLTPHRRDLCSRSIWLARKIRSDLTALTESYVKHQGLNKNINLDSADGMPVASTDQWSELTEAERLQENLQAYRTFHVLLARLLEDQQVHFTPTEGDFHQAIHTLLLQVAAFAYQIEELMILLEYKIPRNEADGMPINVGDGGLFEKKLWGLKVLQELSQWIVRSIADLRFISSHQTGIPARGSHYIANNKKM | – | 15 | 5 fold (EC50 relative to CNTF) |
